According to the supplement of paper PMC10126150:
± gives the standard deviation of the averaged measurements.

Tested on: ATP
Assay: switch fluorescence ratio, 500 uM ATP over buffer (Cy3 cluster intensity, sum of 5 cycles each) (fold (ratio)); higher = stronger signal-on switching upon ATP binding; sequences stand for … in TCGTCGGCAGCGTCAGATGTGTATAAGAGACAGTTTTTTTTTTTTTTTTTTTTTTTTT…TC
Conditions: aptamer strand: ATP DNA aptamer (quencher-CACCTGGGGGAGTATTGCGGAGGAAGG + anchor), 100 nM annealed; ATP concentration: 500 uM
Procedure, shortened: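 Values give the fluorescence ratio for each switch-domain sequence, averaged from per-cluster ratios of summed target-cycle to summed buffer-cycle Cy3 intensity. The Cy3-labelled switching-strand clusters sat on a modified Illumina MiSeq flow-cell, were annealed to 100 nM quencher-labelled ATP aptamer, and were imaged in selection buffer, then after 15 min with 500 uM ATP at 22 °C. Five cycles ran with NaOH stripping and re-annealing between them, and clusters outside 100-1000 RFU were excluded.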
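Note: ATP exposure 15 min at 22 °C before imaging.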

## GGTAGTCCAC
  switch fluorescence ratio: 1.01 ± 0.027

## GGTAGTCCGG
  switch fluorescence ratio: 1.02 ± 0.054

## GGTAGTCCGT
  switch fluorescence ratio: 1.03 ± 0.016

## GGTAGTGGGT
  switch fluorescence ratio: 1 ± 0.013

## GGTAGTGTTT
  switch fluorescence ratio: 0.998 ± 0.035

## GGTAGTTAAA
  switch fluorescence ratio: 0.999 ± 0.024

## GGTAGTTTCA
  switch fluorescence ratio: 0.9966 ± 0.00047

## GGTATAAGGA
  switch fluorescence ratio: 0.996 ± 0.016

## GGTATATGGG
  switch fluorescence ratio: 0.994 ± 0.03

## GGTATCACGG
  switch fluorescence ratio: 0.9912 ± 0.0045

## GGTATCCGTG
  switch fluorescence ratio: 1.019 ± 0.0085

## GGTATGAAGG
  switch fluorescence ratio: 0.9664 ± 0.0095

## GGTATGACTT
  switch fluorescence ratio: 1.03 ± 0.07

## GGTATGATGG
  switch fluorescence ratio: 0.991 ± 0.01

## GGTATGCGGT
  switch fluorescence ratio: 0.974 ± 0.027

## GGTATGGATC
  switch fluorescence ratio: 0.9869 ± 0.0084

## GGTATGGGAC
  switch fluorescence ratio: 1 ± 0.022

## GGTATGGGTC
  switch fluorescence ratio: 0.947 ± 0.034

## GGTATGTAAG
  switch fluorescence ratio: 0.995 ± 0.02

## GGTATGTACG
  switch fluorescence ratio: 1.03 ± 0.054

## GGTATGTCGA
  switch fluorescence ratio: 0.954 ± 0.075

## GGTATTAAGG
  switch fluorescence ratio: 1.02 ± 0.013

## GGTATTAGAT
  switch fluorescence ratio: 1.01 ± 0.049

## GGTATTAGGG
  switch fluorescence ratio: 1.002 ± 0.0014

## GGTATTCAGG
  switch fluorescence ratio: 1.03 ± 0.018

## GGTATTCATG
  switch fluorescence ratio: 1.01 ± 0.011

## GGTATTCATT
  switch fluorescence ratio: 0.995 ± 0.036

## GGTATTGGGC
  switch fluorescence ratio: 0.9875 ± 0.0056

## GGTATTTATT
  switch fluorescence ratio: 1.01 ± 0.019

## GGTATTTGTA
  switch fluorescence ratio: 0.991 ± 0.031

## GGTATTTGTT
  switch fluorescence ratio: 1.01 ± 0.032

## GGTATTTTGC
  switch fluorescence ratio: 0.979 ± 0.048

## GGTATTTTTT
  switch fluorescence ratio: 0.997 ± 0.025

## GGTCAATGTG
  switch fluorescence ratio: 0.987 ± 0.033

## GGTCAATTAT
  switch fluorescence ratio: 1.05 ± 0.068

## GGTCACAAGA
  switch fluorescence ratio: 1 ± 0.032

## GGTCACGGGT
  switch fluorescence ratio: 0.981 ± 0.031

## GGTCAGGGGC
  switch fluorescence ratio: 1.08 ± 0.017

## GGTCATAGAC
  switch fluorescence ratio: 0.991 ± 0.026

## GGTCATTATT
  switch fluorescence ratio: 0.968 ± 0.057

## GGTCATTCAA
  switch fluorescence ratio: 0.982 ± 0.027

## GGTCCAACTG
  switch fluorescence ratio: 0.987 ± 0.036

## GGTCCAGGGC
  switch fluorescence ratio: 1.08 ± 0.04

## GGTCCCATCG
  switch fluorescence ratio: 0.985 ± 0.019

## GGTCCCGGGG
  switch fluorescence ratio: 1.05 ± 0.026

## GGTCCGATCG
  switch fluorescence ratio: 0.9694 ± 0.0045

## GGTCCGGGGA
  switch fluorescence ratio: 0.989 ± 0.013

## GGTCCGGGGG
  switch fluorescence ratio: 1.02 ± 0.025

## GGTCCTTTGA
  switch fluorescence ratio: 1 ± 0.029

## GGTCGAAAAC
  switch fluorescence ratio: 1.06 ± 0.11

## GGTCGAGGGT
  switch fluorescence ratio: 1.022 ± 0.0041

## GGTCGATTCG
  switch fluorescence ratio: 0.961 ± 0.013

## GGTCGCAACC
  switch fluorescence ratio: 1.04 ± 0.049

## GGTCGCTGCG
  switch fluorescence ratio: 0.9956 ± 0.0069

## GGTCGGGGTC
  switch fluorescence ratio: 0.966 ± 0.039

## GGTCGGGGTT
  switch fluorescence ratio: 1.02 ± 0.034

## GGTCGTCAGT
  switch fluorescence ratio: 0.986 ± 0.037

## GGTCGTTGCT
  switch fluorescence ratio: 0.9456 ± 0.0046

## GGTCGTTTGC
  switch fluorescence ratio: 1.05 ± 0.074

## GGTCTAAATT
  switch fluorescence ratio: 1 ± 0.039

## GGTCTAAGGG
  switch fluorescence ratio: 0.976 ± 0.036

## GGTCTAAGTG
  switch fluorescence ratio: 0.9816 ± 0.0034

## GGTCTAATGG
  switch fluorescence ratio: 0.998 ± 0.051

## GGTCTGGAAG
  switch fluorescence ratio: 0.982 ± 0.035

## GGTCTTACCA
  switch fluorescence ratio: 0.98367 ± 0.00036

## GGTCTTCCGC
  switch fluorescence ratio: 1.14 ± 0.088

## GGTGAAAAAG
  switch fluorescence ratio: 1.01 ± 0.011

## GGTGAAGAGT
  switch fluorescence ratio: 1 ± 0.038

## GGTGACACAG
  switch fluorescence ratio: 0.988 ± 0.017

## GGTGACAGGC
  switch fluorescence ratio: 1.04 ± 0.08

## GGTGAGAGTT
  switch fluorescence ratio: 0.956 ± 0.0087

## GGTGAGATGG
  switch fluorescence ratio: 1 ± 0.069

## GGTGAGGCTG
  switch fluorescence ratio: 0.996 ± 0.015

## GGTGAGGGGA
  switch fluorescence ratio: 1.01 ± 0.011

## GGTGAGGTGC
  switch fluorescence ratio: 0.9995 ± 0.0084

## GGTGATGGGA
  switch fluorescence ratio: 0.976 ± 0.021

## GGTGCACCGA
  switch fluorescence ratio: 0.9884 ± 0.0063

## GGTGCAGTGT
  switch fluorescence ratio: 1.05 ± 0.017

## GGTGCCGAAT
  switch fluorescence ratio: 0.998 ± 0.031

## GGTGCGGCTT
  switch fluorescence ratio: 1.007 ± 0.0072

## GGTGCGGGCG
  switch fluorescence ratio: 1.02 ± 0.11

## GGTGCGGGGG
  switch fluorescence ratio: 0.987 ± 0.093

## GGTGCTGAAG
  switch fluorescence ratio: 1.01 ± 0.021

## GGTGCTGGGG
  switch fluorescence ratio: 1.01 ± 0.019

## GGTGCTTAAT
  switch fluorescence ratio: 1 ± 0.037

## GGTGGAAATC
  switch fluorescence ratio: 1.09 ± 0.16

## GGTGGAGATC
  switch fluorescence ratio: 1 ± 0.051

## GGTGGAGCGG
  switch fluorescence ratio: 1 ± 0.047

## GGTGGAGGTT
  switch fluorescence ratio: 1.02 ± 0.051

## GGTGGATTGC
  switch fluorescence ratio: 1.04 ± 0.02

## GGTGGCATGT
  switch fluorescence ratio: 0.997 ± 0.054

## GGTGGCTAGC
  switch fluorescence ratio: 1 ± 0.044

## GGTGGCTTAA
  switch fluorescence ratio: 0.96 ± 0.024

## GGTGGGAAGA
  switch fluorescence ratio: 1.02 ± 0.017

## GGTGGGCAAT
  switch fluorescence ratio: 1.11 ± 0.045

## GGTGGGGCTG
  switch fluorescence ratio: 0.968 ± 0.03

## GGTGGGGGCG
  switch fluorescence ratio: 1 ± 0.024

## GGTGGGGGCT
  switch fluorescence ratio: 0.973 ± 0.034

## GGTGGGGTCG
  switch fluorescence ratio: 0.991 ± 0.046

## GGTGGGGTTG
  switch fluorescence ratio: 1 ± 0.04
